Results published in publication PMC8431961 (Science (New York, N.Y.), 2021).

Biological target: the molecule itself
Assay: SEC + other: electron microscopy

| Protein | binding result |
| --- | --- |
| MmMOAP1 (natural protein, mouse, UniProt Q9ERH6 1-352, looked up) MTLRLLEDWCRGMDMNPRKALLVAGIPPTCGVADIEEALQAGLAPLGEHRLLGRMFRRDENKNVALIGLTVETGSALVPKEIPAKGGVWRVIFKPPDTDSDFLCRLNEFLKGEGMTMGELTRVLGNRNDPLGLDPGIMIPEIRAPMLAQALNEALKPTLQYLRYKKLSVFSGRDPPGPGEEEFESWMFHTSQVMKTWQVSDVEKRRRLIESLRGPAFEIIRVLKINNPFITVAECLKTLETIFGIIDNPRALQVKYLTTYQKTDEKLSAYVLRLEPLLQKLVQKGAIEKEVVNQARLDQVIAGAVHKSVRRELGLPEGSPAPGLLQLLTLIKDKEAEEEEVLLQAELEGYCT | binds |
| MmPNMA5 (natural protein, mouse, UniProt Q5DTT8 1-618, looked up) MAVALLDDWCKGMDLDPKKAVLIVGIPVQYTEAAINDALKEGLPPLCAYKVIGRMFRREDEAKAVLIELPEVVDYTMMPTHIPAEGGAWEVVVKPRSPDDEFMNKLIYFLRDEGRRIVDVAKALGFSTVPTGKIELKNLDQDKPKGLKSLCNNSTCYKKLKVFSGSPFPGPGEESFETWLEEVTELMQLWQVSEREKKQCLLESLRGSALSIMQALWTSNDSLTVEQCLKALKHIFGNKEDSKVLQFRFLQSSQKPAEKVSDYLLRLEPLLQKAVQQSPLSAHSADSIRLKHVLSQVSMTTGLRGKLSLLDQQGCPPTFLELMKLTRDEEEWESTVVVEEQEQVRRDSSACEAANEVVTQAEDSREVSTQTTGEEMTSVKRRRLLWRHSAGEEGQRKESGFWAESEPDEQKPYVRAQESGNERGAWAVSHPNPKEIEAQDSQEFLPVAGNRDTLTKSWGSPDKGTGDMSVAEGQQGQGKAPNFLLARNDPNKQEQIPHSSVTTKWQDRGECQRLKWGASMITRPQGNPDRSWDTSGSQDGEDGCSELRMPTGTEAAQGVEEPATGLSWAEDTSAWEQARLGRETVPRRGGRRIQPVFRIIYTALGEPHEGSTLESFRE | binds |
| MmPNMA3 (natural protein, mouse, UniProt Q8JZW8 1-466, looked up) MPLNLLQDWCRGEHLNTQRSMLILGIPEDCSEDEFEETLHEALKHLGRYRIIGRMFRREENAQAFLVELARDFDYALVPREIEGKGGPWEVVVKPPHSDDEFLNRLNHFLEEERRTVSDMNRVLGTHSNHSPTKTTISADFWVWAQTLGAVMQPLLEQMLYRELRVFSGNTISIPGLLAFDSWLEHTTEMLQMWQVPEVEKRRRLMECLRGPALQVVNVLRANNAAITVKECLEALRQVFGSVDNRKIAQLKFCKAYQEPGEKVSSFVVRLETLLQKALEKNAISRKNVNQTRLKRILGGAILSAKLREKLKMLKQRRRPPGFLALVKLFREEEEEWEATRGSERSCYEGLELGPSPSNIGSEERELFVPAFGSVLEERPYQGSRRRRHRRRGQHRKGGVPRDDSQGTRKQNYDTFCYSCGEDGHIRVHCFNPSNRTLVKQKRQAAMEKGNRSWAWEKSHPKPKTK | binds |
